Measurements taken from article PMC8185509 (Molecular Medicine Reports, 2021).

Biological target: T1, optic atrophy 1, Myc-tagged (OPA1-myc) (UniProt O60313-1 88-960)
T1 sequence (looked up): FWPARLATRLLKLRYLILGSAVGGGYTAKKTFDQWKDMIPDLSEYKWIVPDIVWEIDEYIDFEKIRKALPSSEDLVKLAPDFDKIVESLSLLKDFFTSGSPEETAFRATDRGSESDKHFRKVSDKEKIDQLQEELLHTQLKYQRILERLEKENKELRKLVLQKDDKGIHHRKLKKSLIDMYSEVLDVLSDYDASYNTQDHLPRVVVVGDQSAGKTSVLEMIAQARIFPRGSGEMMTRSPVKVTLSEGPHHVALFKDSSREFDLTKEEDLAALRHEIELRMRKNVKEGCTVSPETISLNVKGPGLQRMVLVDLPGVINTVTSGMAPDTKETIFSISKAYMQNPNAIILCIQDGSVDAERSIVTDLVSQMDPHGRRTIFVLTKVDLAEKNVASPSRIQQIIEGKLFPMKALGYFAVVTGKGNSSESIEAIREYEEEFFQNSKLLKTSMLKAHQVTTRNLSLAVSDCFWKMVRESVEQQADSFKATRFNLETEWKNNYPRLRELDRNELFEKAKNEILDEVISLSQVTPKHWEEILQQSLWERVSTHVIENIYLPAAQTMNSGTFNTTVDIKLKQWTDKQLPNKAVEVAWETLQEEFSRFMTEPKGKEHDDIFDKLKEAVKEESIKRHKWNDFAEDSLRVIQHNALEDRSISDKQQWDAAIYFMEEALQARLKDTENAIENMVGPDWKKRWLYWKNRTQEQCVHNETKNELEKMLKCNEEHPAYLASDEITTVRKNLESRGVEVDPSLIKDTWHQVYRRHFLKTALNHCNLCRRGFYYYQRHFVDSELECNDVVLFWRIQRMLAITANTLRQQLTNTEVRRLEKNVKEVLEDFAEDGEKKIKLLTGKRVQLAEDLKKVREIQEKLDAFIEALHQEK
Assay: pull-down

binding result: binds
B1: recombinant GST-fused HIGD-1B (natural protein, human, UniProt Q9P298 1-99, looked up)
chain: MSANRRWWVPPDDEDCVSEKLLRKTRESPLVPIGLGGCLVVAAYRIYRLRSRGSTKMSIHLIHTRVAAQACAVGAIMLGAVYTMYSDYVKRMAQDAGEK
